Broadly, the Kd is the concentration at which binding is half-saturated.

For this experiment, the target named is PeSy1‐His recombinant protein (Saccharothrix yanglingensis Hhs.015). The experiment in a line: MST; PeSy1‐His labelled with protein labelling kit RED, in PBST (PBS with 0.05% Tween 20); serially diluted RSy1‐GST in 16 standard treated capillaries; Monolith NT.115, excitation power 40%, MST power medium; GST as reference control; three biological repeats.

Consider “RSy1‐GST recombinant protein (natural protein)”, for which the Kd was 8.77 µM.

These data come from paper PMC10098051.
